Measured values reported in patent US20210130485A1 (DENALI THERAPEUTICS, published 2021).
Positions count from the first letter of the chain named. Blank lines part the entries; values can stand above or below the binder they belong to.

How the values were obtained:
[1] = molecular target: T1, Human transferrin receptor protein 1 (TFR1) (human, UniProt P02786 89-760, limits assumed); test: soft randomization libraries selected against human TfR
T1 construct: also called human TfR

[2] = molecular target: T1, Human transferrin receptor protein 1 …; test: selection of combinatorial CH3 libraries for binders to human TfR, affinity maturation
[3] = molecular target: T1, Human transferrin receptor protein 1 …; test: binding ELISA, purified Fab-Fc fusion, TfR coated on the plate
Description: Binding ELISAs were conducted with purified Fab-Fc fusion variants with human or cyno TfR coated on the plate, as described above. The variants from the clone CH3C.18 maturation library, clone CH3C.3.2-1, clone CH3C.3.2-5, and clone CH3C.3.2-19, bound human and cyno TfR with approximately equivalent EC₅₀ values, whereas the parent clones CH3C.18 and CH3C.35 had greater than 10-fold better binding to human versus cyno TfR.
ELISA plates were coated with antigen, typically at […] overnight, then blocked with 1% BSA before addition of phage or periplasmic extracts. […] The plates were washed again, and then developed with TMB reagent and quenched with 2N sulfuric acid. Absorbance at 450 nm was quantified using a plate reader (BioTek®) and binding curves were plotted using Prism software where applicable. Absorbance signal for tested clones was compared to negative control (phage or paraplasmic extract lacking Fc). In some assays, soluble transferrin or other competitor was added during the binding step, typically at significant molar excess (greater than 10-fold excess).

T1 sequence (P02786 89-760 limits assumed): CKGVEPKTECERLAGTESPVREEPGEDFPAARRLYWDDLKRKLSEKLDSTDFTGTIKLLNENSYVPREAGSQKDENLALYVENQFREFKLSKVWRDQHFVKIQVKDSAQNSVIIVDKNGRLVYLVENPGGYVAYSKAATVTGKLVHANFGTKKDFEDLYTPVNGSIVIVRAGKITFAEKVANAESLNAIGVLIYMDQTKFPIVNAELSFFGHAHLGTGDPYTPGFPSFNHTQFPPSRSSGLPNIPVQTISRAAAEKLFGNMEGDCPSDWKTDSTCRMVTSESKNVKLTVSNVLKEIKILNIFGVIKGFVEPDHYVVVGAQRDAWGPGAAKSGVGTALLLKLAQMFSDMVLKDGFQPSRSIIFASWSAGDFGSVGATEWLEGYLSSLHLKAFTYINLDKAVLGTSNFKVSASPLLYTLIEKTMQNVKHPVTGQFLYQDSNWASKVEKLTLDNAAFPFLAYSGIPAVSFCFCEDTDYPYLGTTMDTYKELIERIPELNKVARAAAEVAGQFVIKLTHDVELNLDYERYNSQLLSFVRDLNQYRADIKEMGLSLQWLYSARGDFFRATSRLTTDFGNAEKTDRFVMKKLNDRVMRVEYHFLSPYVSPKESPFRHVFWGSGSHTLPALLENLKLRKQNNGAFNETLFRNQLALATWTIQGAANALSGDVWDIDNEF

binding result [1]: binds
B4: Clone CH3C.25 (designed binder)
chain: APELLGGPSVFLFPPKPKDTLMISRTPEVTCVVVDVSHEDPEVKFNWYVDGVEVHNAKTKPREEQYNSTYRVVSVLTVLHQDWLNGKEYKCKVSNKALPAPIEKTISKAKGQPREPQVYTLPPSRDELTKNQVSLTCLVKGFYPSDIAVEWESMGHVWVGYKTTPPVLDSDGSFFLYSKLTVDKSTWQQGWVFSCSVMHEALHNHYTQKSLSLSPGK
notes: Modified Fc polypeptide

binding result [3]: binds
B5: Clone CH3C.3.2-1 (designed binder)
chain: B4 chain with M154L, G160N, Y161F, D183P
notes: Modified Fc polypeptide; also called CH3C.18.3.2-1

Second part, the binder before the results:

B1: Clone CH3C.21 (designed binder)
chain: B4 chain with M154L, H156L, D183P
notes: Modified Fc polypeptide
binding result [1]: binds

B2: Clone CH3C.34 (designed binder)
chain: B4 chain with M154L, H156L, G160F, Y161S, D183P
notes: Modified Fc polypeptide
binding result [1]: binds

B3: Clone CH3C.35.21 (designed binder)
chain: B4 chain with E150W, M154Y, H156T, V157E, V159S, G160S, D183T, S185E, T186E, W191F
notes: Modified Fc polypeptide
binding result [2]: binds
